Data on 17 molecules can be found in JP2018153172A (dated 2018).

As usually defined, the Kd is the concentration at which binding is half-saturated. A lower Kd goes with tighter binding. As usually defined, the koff is the first-order rate constant of dissociation. Low readings indicate slow dissociation, high ones fast dissociation. The term kon denotes the second-order rate constant of association. Read a high kon as faster complex formation.

To fix the notation:
T1: 可溶性ヒトgp130受容体 (soluble human gp130 receptor, extracellular region of SEQ ID NO 1 with six histidines) (human, UniProt P40189 23-619)
T1 construct: Secreted from CHO DG44 cells and purified on HisTrap; no cleavage site is stated; also called 可溶性ヒトgp130受容体タンパク質; ヒト可溶性gp130受容体
T1 sequence: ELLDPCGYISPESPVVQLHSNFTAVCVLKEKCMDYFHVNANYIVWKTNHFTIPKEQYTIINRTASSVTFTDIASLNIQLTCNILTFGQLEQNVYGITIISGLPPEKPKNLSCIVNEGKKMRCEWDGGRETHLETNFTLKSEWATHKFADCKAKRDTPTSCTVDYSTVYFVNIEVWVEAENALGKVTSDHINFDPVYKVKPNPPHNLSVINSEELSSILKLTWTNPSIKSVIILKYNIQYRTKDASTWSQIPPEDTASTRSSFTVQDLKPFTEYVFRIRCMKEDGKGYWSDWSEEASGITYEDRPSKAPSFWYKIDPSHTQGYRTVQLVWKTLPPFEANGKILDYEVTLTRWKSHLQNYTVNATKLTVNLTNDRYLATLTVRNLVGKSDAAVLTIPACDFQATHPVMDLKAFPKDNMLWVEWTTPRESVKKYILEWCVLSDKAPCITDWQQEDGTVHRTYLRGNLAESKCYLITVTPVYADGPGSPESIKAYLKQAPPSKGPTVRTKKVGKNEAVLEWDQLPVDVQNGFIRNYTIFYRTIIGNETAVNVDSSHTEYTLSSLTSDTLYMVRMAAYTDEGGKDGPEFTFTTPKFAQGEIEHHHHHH

B1: ヒト化抗体AH2−2AL4F1 (antibody, human IgG1, kappa, V domains shown)
VH: QVQLQQPGAELVQPGTSVRLSCKASGYTFTDYNMDWVKQRPGQGLEWIGDINSHSGGIIYNQKFKDKATLTVDKSSSTAYMQLSSLTSEDSAVYYCARTYYVYGHFFDYWGQGTLVTVSA
VL: DIQMTQSPSSLSASVGDRVTITCNVSSSVTSMYWYQQKQGKSPQLLVYLTSNLASGVPSRFSGSGSGTQFSLKINNLQPEDFGSYYCQQWSTNPLTFGQGTKLDLKR
notes: also called AH2−2L4F1
B2: ヒト化抗体AH2−2L14A10 (antibody, human IgG1, kappa, V domains shown)
VH: QVQLQQPGAELVQPGTSVRLSCKASGYTFTDYNMDWVKQRPGQGLEWIGDINSHSGGIIYNQKFKDKATLTVDKSSSTAYMQLSSLTSEDSAVYYCARTYYVYGHFFDYWGQGTLVTVSA
VL: DIQMTQSPSTLSASIGDRVTITCNVSSSVTSMYWYQQKPGKAPKLLIYLTSNLASGVPSRFSGSGSGTDFTLTISSLQPEDFATYYCQQWSTNPLTFGQGTKLEIKR
B3: ヒト化抗体AH2−2L6E6 (antibody, human IgG1, kappa, V domains shown)
VH: QVQLQQPGAELVQPGTSVRLSCKASGYTFTDYNMDWVKQRPGQGLEWIGDINSHSGGIIYNQKFKDKATLTVDKSSSTAYMQLSSLTSEDSAVYYCARTYYVYGHFFDYWGQGTLVTVSA
VL: ELVLTQSPGTLSLSAGERATLSCNVSSSVTSMYWYQQKPGKAPKLLIYLTSNLASGVPSRFSGSGSGTDYTFTISSLQPEDIATYYCQQWSTNPLTFGQGTKVEIKR
B4: ヒト化抗体AH2−AL4 (antibody, V domains shown)
VH: QVQLQQPGAELVQPGTSVRLSCKASGYTFTDYNMDWVKQRPGQGLEWIGDINSHSGGIIYNQKFKDKATLTVDKSSSTAYMQLSSLTSEDSAVYYCTRTYYVYGHFFDYWGQGTLVTVSA
VL: DIQMTQSPSSLSASVGDRVTITCNVSSSVTSMYWYQQKQGKSPQLLVYLTSNLASGVPSRFSGSGSGTDFTLTISSLQPEDFATYYCQQWSTNPLTFGQGTKVEIK
notes: VH on human IgG1 constant region (pFUSEss-CHIg-hG1), VL on human kappa constant region (pFUSE2ss-CLIg-hk); also called AH2-AL4
B5: ヒト化抗体AH2−AL3 (antibody, V domains shown)
VH: QVQLQQPGAELVQPGTSVRLSCKASGYTFTDYNMDWVKQRPGQGLEWIGDINSHSGGIIYNQKFKDKATLTVDKSSSTAYMQLSSLTSEDSAVYYCTRTYYVYGHFFDYWGQGTLVTVSA
VL: DIQMTQSPSTLSASVGDRVTITCNVSSSVTSMYWYQQKPGKAPKLLIYLTSNLASGVPARFSGSGSGTEFTLTISSLQPDDFATYYCQQWSTNPLTFGQGTKVEVK
notes: VH on human IgG1 constant region (pFUSEss-CHIg-hG1), VL on human kappa constant region (pFUSE2ss-CLIg-hk); also called AH2-AL3
B6: ヒト化抗体A AH5−AL4 (antibody, V domains shown)
VH: EVQLVQSGPELKKPGASVKVSCKASGYTFTDYNMDWVKQRPGQGLEWIGDINSHSGGIIYNQKFKDRVTITADESTSTAYMELTSLTSEDTAVYYCARTYYVYGHFFDYWGQGTLVSVSS
VL: DIQMTQSPSSLSASVGDRVTITCNVSSSVTSMYWYQQKQGKSPQLLVYLTSNLASGVPSRFSGSGSGTDFTLTISSLQPEDFATYYCQQWSTNPLTFGQGTKVEIK
notes: VH on human IgG1 constant region (pFUSEss-CHIg-hG1), VL on human kappa constant region (pFUSE2ss-CLIg-hk); also called AH5-AL4
B7: ヒト化抗体A AH8−AL4 (antibody, V domains shown)
VH: EVQLVQSGAEVKKPGASVKVSCKASGYTFTDYNMDWVRQAPGKGLEWVGDINSHSGGIIYNQKFKDRVTITADRSTSTVYMELSGLRSEDTAVYYCARTYYVYGHFFDYWGKGTLVTVSS
VL: DIQMTQSPSSLSASVGDRVTITCNVSSSVTSMYWYQQKQGKSPQLLVYLTSNLASGVPSRFSGSGSGTDFTLTISSLQPEDFATYYCQQWSTNPLTFGQGTKVEIK
notes: VH on human IgG1 constant region (pFUSEss-CHIg-hG1), VL on human kappa constant region (pFUSE2ss-CLIg-hk); also called AH8-AL4
B8: ヒト化抗体A AH5−AL5 (antibody, V domains shown)
VH: EVQLVQSGPELKKPGASVKVSCKASGYTFTDYNMDWVKQRPGQGLEWIGDINSHSGGIIYNQKFKDRVTITADESTSTAYMELTSLTSEDTAVYYCARTYYVYGHFFDYWGQGTLVSVSS
VL: DIQMTQSPASLSASVGETVTITCNVSSSVTSMYWYQQKPGKAPKLLIYLTSNLASGVPARFSGSGSGTEFTLTISSLQPDDFATYYCQQWSTNPLTFGAGTKLDLK
notes: VH on human IgG1 constant region (pFUSEss-CHIg-hG1), VL on human kappa constant region (pFUSE2ss-CLIg-hk); also called AH5-AL5
B9: ヒト化抗体A AH9−AL7 (antibody, V domains shown)
VH: EVQLVESGGGLVQPGGSLRLSCKASGYTFTDYNMDWVRQAPGKGLEWVGDINSHSGGIIYNQKFKDRFTISADTSKNTAYLQMNSLRAEDTAVYYCARTYYVYGHFFDYWGQGTLVTVSS
VL: DIQMTQSPSTLSASIGDRVTITCNVSSSVTSMYWFQQRPGQAPKVLIYLTSNLASGVPSRFSGSGSGTDFTFTISSLQPEDIATYYCQQWSTNPLTFGGGTKVDIK
notes: VH on human IgG1 constant region (pFUSEss-CHIg-hG1), VL on human kappa constant region (pFUSE2ss-CLIg-hk); also called AH9-AL7
B10: ヒト化抗体A AH7−AL1 (antibody, V domains shown)
VH: EVQLVQSGAEVKKPGATVKISCKASGYTFTDYNMDWVRQAPGQGLEWIGDINSHSGGIIYNQKFKDWVTMTRDTSINTAYMELRLRSDDTAVYYCARTYYVYGHFFDYWGQGTLVTVSA
VL: DIQMTQSPSSLSASVGDRVTITCNVSSSVTSMYWYQQKPGKAPKLLIYLTSNLASGVPARFSGSGSGTEFTLTISSLQPDDFATYYCQQWSTNPLTFGAGTKLDLK
notes: VH on human IgG1 constant region (pFUSEss-CHIg-hG1), VL on human kappa constant region (pFUSE2ss-CLIg-hk); also called AH7-AL1
B11: ヒト化抗体A AH7−AL8 (antibody, V domains shown)
VH: EVQLVQSGAEVKKPGATVKISCKASGYTFTDYNMDWVRQAPGQGLEWIGDINSHSGGIIYNQKFKDWVTMTRDTSINTAYMELRLRSDDTAVYYCARTYYVYGHFFDYWGQGTLVTVSA
VL: ELVLTQSPGTLSLSAGERATLSCNVSSSVTSMYWYQQKPGKAPKLLIYLTSNLASGAPSRFSGSGSGTDFTLTISSLQPDDFATYYCQQWSTNPLTFGGGTKLEIK
notes: VH on human IgG1 constant region (pFUSEss-CHIg-hG1), VL on human kappa constant region (pFUSE2ss-CLIg-hk); also called AH7-AL8
B12: ヒト化抗体A AH7−AL6 (antibody, V domains shown)
VH: EVQLVQSGAEVKKPGATVKISCKASGYTFTDYNMDWVRQAPGQGLEWIGDINSHSGGIIYNQKFKDWVTMTRDTSINTAYMELRLRSDDTAVYYCARTYYVYGHFFDYWGQGTLVTVSA
VL: EIVLTQSPATLSLSPGERATLSCNVSSSVTSMYWYQQKPGQAPRLLIYLTSNLASGIPDRFSGSGSGTDFTLTISRLEPEDFAVYYCQQWSTNPLTFGQGTKVEIK
notes: VH on human IgG1 constant region (pFUSEss-CHIg-hG1), VL on human kappa constant region (pFUSE2ss-CLIg-hk); also called AH7-AL6
B13: ヒト化抗体A AH7−AL7 (antibody, V domains shown)
VH: EVQLVQSGAEVKKPGATVKISCKASGYTFTDYNMDWVRQAPGQGLEWIGDINSHSGGIIYNQKFKDWVTMTRDTSINTAYMELRLRSDDTAVYYCARTYYVYGHFFDYWGQGTLVTVSA
VL: DIQMTQSPSTLSASIGDRVTITCNVSSSVTSMYWFQQRPGQAPKVLIYLTSNLASGVPSRFSGSGSGTDFTFTISSLQPEDIATYYCQQWSTNPLTFGGGTKVDIK
notes: VH on human IgG1 constant region (pFUSEss-CHIg-hG1), VL on human kappa constant region (pFUSE2ss-CLIg-hk); also called AH7-AL7
B14: ヒト化抗体A AH7−AL2 (antibody, V domains shown)
VH: EVQLVQSGAEVKKPGATVKISCKASGYTFTDYNMDWVRQAPGQGLEWIGDINSHSGGIIYNQKFKDWVTMTRDTSINTAYMELRLRSDDTAVYYCARTYYVYGHFFDYWGQGTLVTVSA
VL: DIQMTQSPSSLSASVGDRVTITCNVSSSVTSMYWYQQKQGKSPQLLVYLTSNLASGVPSRFSGSGSGTQFSLKINNLQPEDFGSYYCQQWSTNPLTFGAGTKLDLK
notes: VH on human IgG1 constant region (pFUSEss-CHIg-hG1), VL on human kappa constant region (pFUSE2ss-CLIg-hk); also called AH7-AL2
B15: ヒト化抗体A AH7−AL3 (antibody, V domains shown)
VH: EVQLVQSGAEVKKPGATVKISCKASGYTFTDYNMDWVRQAPGQGLEWIGDINSHSGGIIYNQKFKDWVTMTRDTSINTAYMELRLRSDDTAVYYCARTYYVYGHFFDYWGQGTLVTVSA
VL: DIQMTQSPSTLSASVGDRVTITCNVSSSVTSMYWYQQKPGKAPKLLIYLTSNLASGVPARFSGSGSGTEFTLTISSLQPDDFATYYCQQWSTNPLTFGQGTKVEVK
notes: VH on human IgG1 constant region (pFUSEss-CHIg-hG1), VL on human kappa constant region (pFUSE2ss-CLIg-hk); also called AH7-AL3
B16: ヒト化抗体A AH7−AL5 (antibody, V domains shown)
VH: EVQLVQSGAEVKKPGATVKISCKASGYTFTDYNMDWVRQAPGQGLEWIGDINSHSGGIIYNQKFKDWVTMTRDTSINTAYMELRLRSDDTAVYYCARTYYVYGHFFDYWGQGTLVTVSA
VL: DIQMTQSPASLSASVGETVTITCNVSSSVTSMYWYQQKPGKAPKLLIYLTSNLASGVPARFSGSGSGTEFTLTISSLQPDDFATYYCQQWSTNPLTFGAGTKLDLK
notes: VH on human IgG1 constant region (pFUSEss-CHIg-hG1), VL on human kappa constant region (pFUSE2ss-CLIg-hk); also called AH7-AL5
B17: ヒト化抗体A AH7−AL4 (antibody, V domains shown)
VH: EVQLVQSGAEVKKPGATVKISCKASGYTFTDYNMDWVRQAPGQGLEWIGDINSHSGGIIYNQKFKDWVTMTRDTSINTAYMELRLRSDDTAVYYCARTYYVYGHFFDYWGQGTLVTVSA
VL: DIQMTQSPSSLSASVGDRVTITCNVSSSVTSMYWYQQKQGKSPQLLVYLTSNLASGVPSRFSGSGSGTDFTLTISSLQPEDFATYYCQQWSTNPLTFGQGTKVEIK
notes: VH on human IgG1 constant region (pFUSEss-CHIg-hG1), VL on human kappa constant region (pFUSE2ss-CLIg-hk); also called AH7-AL4

In one test the target is T1, 可溶性ヒトgp130受容体 (soluble human gp130 …). Kind of test: SPR, Biacore T200, gp130 on CM5, antibody as analyte. A general note: SPR reads the build-up and loss of mass on a sensor chip optically.
Regarding B1, binding was characterised by a dissociation constant (Kd) of 1.98 nM, the koff was 0.000221 s⁻¹ and the on-rate (kon) stood at 111000 M⁻¹ s⁻¹.

B2 registered a Kd of 1.3 nM, a koff of 0.000202 s⁻¹ and a kon of 155000 M⁻¹ s⁻¹. The molecule B3 showed a Kd of 0.991 nM, a koff of 0.000209 s⁻¹ and a kon of 211000 M⁻¹ s⁻¹.

A further test has the same target. The test is described as follows: SPR, Biacore T200, gp130 amine-coupled on CM5 (266 RU), antibody as analyte.
Turning to B4, binding was characterised by a dissociation constant (Kd) of 4.61 nM, the koff stood at 0.000289 s⁻¹ and the kon was 62700 M⁻¹ s⁻¹. In turn, B5 gave a Kd of 3.8 nM, a koff of 0.000268 s⁻¹ and a kon of 70600 M⁻¹ s⁻¹.

The target is the same in the next test. Kind of test: ELISA, immobilised soluble human gp130, COS1 supernatant, anti-human antibody-HRP. (ELISA stands for enzyme-linked immunosorbent assay.)
Turning to B6, the binding result is “binds”. Still for that read-out and setting: the value for B7 was “binds”; that for B8 was “binds”. Same read-out and setting: the value for B9 was “binds”; that for B10 was “binds”; that for B11 was “binds”. Same read-out and setting: the same measure for B12: “binds”; for B13: “binds”; for B14: “binds”. As to B15, the binding result is listed as “binds”.

As for B16, the binding result is listed as “binds”. The same measure, in the same setting: the same measure for B17: “binds”.
